Bounds are passed on as bounds.

The source of these data is publication PMC9911399, “Two distinct binding modes provide the RNA-binding protein RbFox with extraordinary sequence specificity”.

The target of data set [1] is T1, RbFoxmut (RRM with four substitutions) (UniProt Q9NWB1).
T1 sequence: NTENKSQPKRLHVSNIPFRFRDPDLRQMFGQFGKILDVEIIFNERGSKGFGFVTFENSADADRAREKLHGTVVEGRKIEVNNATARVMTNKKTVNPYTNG
The data set can be described thus: EMSA. As to conditions: EMSA: 10 mM Tris pH 7.5, 150 mM NaCl, 3.4 mM EDTA, 0.001% NP-40, 30 C, 10 min, 1 nM RNA, 8% native PAGE; NMR: 10 mM sodium phosphate pH 6.0, 30 mM NaCl, 298 K …. A general note: A gel shift assay detects complexes by their altered migration in electrophoresis.

Another data set has as its target T2, RbFox RRM (wt) (UniProt Q9NWB1 109-208).
T2 sequence: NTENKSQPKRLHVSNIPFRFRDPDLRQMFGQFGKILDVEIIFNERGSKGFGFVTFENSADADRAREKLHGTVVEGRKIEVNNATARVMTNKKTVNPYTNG
The data set can be described thus: EMSA; EMSA: 10 mM Tris pH 7.5, 150 mM NaCl, 3.4 mM EDTA, 0.001% NP-40, 30 C, 10 min, 1 nM RNA, 8% native PAGE; NMR: 10 mM sodium phosphate pH 6.0, 30 mM NaCl, 298 K. As to conditions: protein: recombinant; tags: His6 (HisTrap) for EMSA; His6-GST removed by TEV for NMR; label: 5' 32P (EMSA); unlabeled (NMR).

For data set [2], the target named is T3, RBFOX1 RRM RbFoxmut (Fox-RRM*) (Homo sapiens, UniProt Q9NWB1 109-208, R118D;E147R;N151S;E152T).
T3 sequence: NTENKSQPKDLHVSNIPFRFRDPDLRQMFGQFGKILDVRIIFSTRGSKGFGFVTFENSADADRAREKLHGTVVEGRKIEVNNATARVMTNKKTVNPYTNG
The data set can be described thus: EMSA; 10 mM Tris pH 7.5, 150 mM NaCl, 3.4 mM EDTA, 0.001% NP-40, 30 C. As to conditions: tags: His6 N-terminal (pET28a); label: 5' 32P.

Another data set deals with T4, RBFOX1 RRM (Homo sapiens, UniProt Q9NWB1 109-208).
T4 sequence: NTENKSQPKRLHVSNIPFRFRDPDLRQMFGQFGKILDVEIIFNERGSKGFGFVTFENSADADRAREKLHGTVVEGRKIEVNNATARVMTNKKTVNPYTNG
The description is as above. As to conditions: tags: His6 N-terminal (pET28a); label: 5' 32P.

Regarding UGCAUGU [UGCAUGU (cognate)], the K half in data set [1] is 14.3 nM.

Turning to UACAUGU, in data set [1], the binding signal is -5.01 ln(KA,rel).

UGAAUGU: in data set [1], the K half amounted to 35.3 nM.

As to UGCAUGU (ssRNA) [UGCAUGU (cognate)], in the data set with RbFox RRM (wt), the “apparent K (half saturation)” value was determined as 1.6 ± 0.3 nM.

On to UGCAUGU (ssRNA), for which the “apparent K (half saturation)” value in data set [2] was found to be 14.3 ± 2.5 nM.

For UGAAUGU (ssRNA), the “apparent K (half saturation)” value was more than 17 µM with RBFOX1 RRM and 35.3 ± 11.8 nM in data set [2].
